Test results published in US20050119205A1, “Methods of modulating heme oxygenase-1 expression and treating heme oxygenase-1 mediated conditions” (published 2005).
Where a chain is given by its changes, count along the chain named.

Columns and labels:
[1] = molecular target: T1, biliverdin reductase (hBVR) (Homo sapiens, UniProt P53004 SEQ:1-296); experiment: EMSA; details: tags: rabbit reticulocyte lysate, 35S-Met labelled; chain copies: 2 (stated homodimer); label: 32P 5'
T1 chain: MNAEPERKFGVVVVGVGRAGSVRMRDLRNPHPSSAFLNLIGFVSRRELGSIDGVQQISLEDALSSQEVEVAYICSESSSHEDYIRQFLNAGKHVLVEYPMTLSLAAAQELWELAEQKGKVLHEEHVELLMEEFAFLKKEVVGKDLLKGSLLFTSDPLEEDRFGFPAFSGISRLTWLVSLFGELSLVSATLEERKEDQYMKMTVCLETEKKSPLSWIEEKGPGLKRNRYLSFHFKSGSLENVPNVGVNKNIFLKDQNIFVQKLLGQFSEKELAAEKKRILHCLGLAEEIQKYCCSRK
Procedure: (§1) As with native gel analysis, in vitro translated proteins were assayed for DNA binding immediately after synthesis. 1 μl of translated material was added to 5000-500,000 cpm of [³²P]-labeled DNA fragment representing approximately 2-3 ng of DNA. 0.1 μg of poly (dI•dC) in 10 μl of DNA binding buffer was added to the labeled DNA. After incubating samples for 20 min at room temperature, 5 μl loading buffer was added. The samples were resolved on 12% native polyacrylamide gel with 35 m Amp at 4° C. The gels were processed as described above. Dried gels were put on two pieces of film separated by a piece of paper. Autoradiography was done at −70° C. for different time periods.
(§2) To determine whether the synthesized HBVR binds to DNA, the in vitro translated hBVR was incubated with [³²P]-labeled 56-mer or 100-mer DNA fragments. An identical 56 bp fragment in which the AP-I site was substituted with an unrelated sequence of equal length was used as control DNA. In addition, two identical 100 bp fragments with one AP-1 or zero AP-1 sites were synthesized and used as controls (OL.619, OL.620; OL.623-OL.630, Table 1). […] Also, binding of E. coli expressed hBVR protein, which is in monomeric form, to the 100-mer DNA fragment with two AP-1 sites was not detected.

[2] = molecular target: T2, heme oxygenase-1 (HO-1), in vitro translated (UniProt P09601 P09601:1-288); experiment: EMSA; specificity control; details: tags: rabbit reticulocyte lysate; label: 32P 5'
T2 sequence: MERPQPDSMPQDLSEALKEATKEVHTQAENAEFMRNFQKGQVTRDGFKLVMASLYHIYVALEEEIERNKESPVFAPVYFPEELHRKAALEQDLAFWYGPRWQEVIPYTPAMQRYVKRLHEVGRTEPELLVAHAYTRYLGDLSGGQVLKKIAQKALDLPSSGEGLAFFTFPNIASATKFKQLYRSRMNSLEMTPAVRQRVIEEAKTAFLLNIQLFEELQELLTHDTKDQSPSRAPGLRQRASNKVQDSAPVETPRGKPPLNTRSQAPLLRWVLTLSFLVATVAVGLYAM

[3] = molecular target: the molecule itself; experiment: native PAGE (approx. 69 kDa band) against SDS-PAGE (~35 and ~40 kDa bands) of in vitro translated protein
Procedure: The transcribed mRNA was translated in the presence of [35S] methionine using rabbit reticulocyte lysate. In vitro translation was performed using micrococcal nuclease treated rabbit reticulocyte lysate (Promega). 50 μl reaction mixture was prepared by using 35 μl lysate, 1 μl of 0.1 M DTT, 2 μl of 1 mM amino acid mixture minus methionine, 1 μl of RNase inhibitor and 5 μl translation grade [³⁵S] methionine. 5 μl transcribed mRNA was added to the above reaction mixture and immediately incubated at 30° C. for 90 minutes. The in vitro translated proteins were resolved on 12% SDS or native polyacrylamide gel along with rainbow or native high molecular weight markers, respectively (Amersham Pharmacia). The gels were fixed in 10% acetic acid and 30% methanol then treated with autoradiography enhancer (Amplify, Amersham Pharmacia) for 30 min and dried under vacuum at 80° C. for 2 h, and autoradiographed at −70° C.
In vitro translated protein was assayed on native gel immediately after synthesis. […] A portion of the translated protein was treated with SDS and analyzed on denaturing 12% polyacrylamide gel.
Next, whether the protein synthesized by reticulocyte lysate is in fact hBVR was tested. […] As shown in the autoradiogram, two prominent bands at ˜35 and ˜40 kDa were detected. hBVR, based on its predicted amino acid composition, has a molecular weight of ˜34 kDa (Maines et al., Eur. J. Biochem.

[4] = molecular target: the molecule itself; experiment: native 12% polyacrylamide gel, homodimer (~69 kDa band) formation
Procedure: In vitro translated protein was assayed on native gel immediately after synthesis. One μl of in vitro translated material was added to 2 μl (25 ng) of annealed, unlabelled control DNA fragment. To this 0.4 μg of poly dI•dC (Amersham Pharmacia) in 14 μl DNA binding buffer (10 mM Tris-chloride [pH 7.4], 50 mM NaCl, 1 mM MgCl₂, 1 mM EDTA, 1 mM DTT, 5% glycerol) was added. It was incubated for 5 min at room temperature and after adding 5 μl loading buffer (1.5×DNA binding buffer with bromophenol blue dye) samples were resolved on 12% native polyacrylamide gel in TAE buffer at 35 milliamps. The control DNA helps to prevent the formation of nonspecific protein aggregates, thereby increasing the resolution of protein bands (Halazonetis et al., Cell 55:917-924 (1988), which is hereby incorporated by reference in its entirety). A portion of the translated protein was treated with SDS and analyzed on denaturing 12% polyacrylamide gel.
(§3) For this set of experiments, the [³⁵S] methionine-labeled mutant BVR proteins were generated by in vitro translation and assayed on a 12% native gel for detection of the ˜69 kDa protein band and analysis of DNA for complex formation. The 100-mer DNA fragment with two AP-1 sites or without an AP-1 site were used. On the native gel the high molecular weight band was not detected with the mutated proteins.

[5] = molecular target: T1, biliverdin reductase (hBVR); experiment: EMSA; 10 mM Tris pH 7.4, 50 mM NaCl, 1 mM MgCl2, 1 mM EDTA, poly(dI-dC), room temperature; details: tags: rabbit reticulocyte lysate, 35S-Met labelled; chain copies: 2 (stated homodimer); label: 32P 5'
Procedure: as §1, §2

[6] = molecular target: T3, heme oxygenase-1 (hHO-1), E. coli expressed (Homo sapiens, UniProt P09601 P09601:1-288); experiment: EMSA; specificity control; details: label: 32P 5'
T3 sequence: T2 sequence

hBVR K143A [7] = molecular target: T4, hBVR K143A (Homo sapiens, UniProt P53004 SEQ:1-296, K143A); experiment: EMSA; signal same as native hBVR with zero AP-1 DNA; details: tags: rabbit reticulocyte lysate; chain copies: 2; label: 32P 5'
T4 sequence: T1 chain with K143A
Procedure: as §1, §3

hBVR L150A [8] = molecular target: T5, hBVR L150A (Homo sapiens, UniProt P53004 SEQ:1-296, L150A); experiment: as above; details: tags: rabbit reticulocyte lysate; chain copies: 2; label: 32P 5'
T5 sequence: T1 chain with L150A
Procedure: as §1, §3

hBVR L157A [9] = molecular target: T6, hBVR L157A (Homo sapiens, UniProt P53004 SEQ:1-296, L157A); experiment: as above; details: tags: rabbit reticulocyte lysate; chain copies: 2; label: 32P 5'
T6 sequence: T1 chain with L157A
Procedure: as §1, §3

hBVR K143A [10] = molecular target: T4, hBVR K143A; experiment: EMSA; background signal only; details: tags: rabbit reticulocyte lysate; chain copies: 2; label: 32P 5'
Procedure: as §1, §3

hBVR L150A [11] = molecular target: T5, hBVR L150A; experiment: EMSA; background signal only; details: tags: rabbit reticulocyte lysate; chain copies: 2; label: 32P 5'
Procedure: as §1, §3

hBVR L157A [12] = molecular target: T6, hBVR L157A; experiment: EMSA; background signal only; details: tags: rabbit reticulocyte lysate; chain copies: 2; label: 32P 5'
Procedure: as §1, §3

B1: 56-mer, one AP-1 site (OL.627/OL.628) (dsDNA)
DNA 1: CACTGAGAGAAACTATTACACAAGCCACATTAGCATGACTCATTGTTTCTGATCAG
DNA 2: CTGATCAGAAACAATGAGTCATGCTAATGTGGCTTGTGTAATAGTTTCTCTCAGTG
Question: Does B1 bind [1]?
Answer: no binding

Question: Does B1 bind [2]?
Answer: no binding

B2: in vitro translated human biliverdin reductase (hBVR) (enzyme)
chain: T1 chain
notes: the entries concern its self-association into a homodimer; also called translated hBVR; native in vitro translated hBVR
Question: Does B2 bind [3]?
Answer: binds

B3: in vitro translated hBVR mutant K143A (enzyme)
chain: T1 chain with K143A
notes: Site-directed mutant made in p507 and translated in vitro with [35S] methionine; also called K3 mutant
Question: Does B3 bind [4]?
Answer: no binding

B4: in vitro translated hBVR mutant L157A (enzyme)
chain: T1 chain with L157A
notes: Site-directed mutant made in p507 and translated in vitro with [35S] methionine; also called L5 mutant
Question: Does B4 bind [4]?
Answer: no binding

B5: in vitro translated hBVR mutant L150A (enzyme)
chain: T1 chain with L150A
notes: Site-directed mutant made in p507 and translated in vitro with [35S] methionine; also called L4 mutant
Question: Does B5 bind [4]?
Answer: no binding

B6: 100-mer HO-1 promoter, two AP-1 sites (OL.623/OL.624) (dsDNA)
DNA 1: TCCTCAGCTGCTTTTATGCTGTGTCATGGTTGGGAGGGGTGATTAGCAGACAAAGGGAAGACAGATTTTGCTGAGTCACCCTCTGTTCCCTCTGCCTCAG
DNA 2: CTGAGGCAGAGGGAACAGAGGGTGACTCAGCAAAATCTGTCTTCCCTTTGTCTGCTAATCACCCCTCCCAACCATGACACAGCATAAAAGCAGCTGAGGA
Question: What does the source list for B6?
Answer: binding result [5]: binds; binding result [6]: no binding; binding result [2]: no binding; binding result (hBVR K143A [7]): no binding; binding result (hBVR L150A [8]): no binding; binding result (hBVR L157A [9]): no binding

B7: 100-mer, zero AP-1 sites (OL.625/OL.626) (dsDNA)
DNA 1: TCCTCAGCTGCTTTTATGCGATCCTCTGGTTGGGAGGGGTGATTAGCAGACAAAGGGAAGACAGATTTTGCGATCCTCCCCTCTGTTCCCTCTGCCTCAG
DNA 2: CTGAGGCAGAGGGAACAGAGGGGAGGATCGCAAAATCTGTCTTCCCTTTGTCTGCTAATCACCCCTCCCAACCAGAGGATCGCATAAAAGCAGCTGAGGA
Question: What does the source list for B7?
Answer: binding result [6]: no binding; binding result (hBVR K143A [10]): no binding; binding result (hBVR L150A [11]): no binding; binding result (hBVR L157A [12]): no binding
